In patent US12098378B2, “Anti-fungal polypeptides” (priority 2020, dated 2024):

What was measured:
Botrytis cinerea R16 [1] = assay: In vitro antifungal assay, IncuCyte Zoom monitoring of fungal growth from spore suspension; format: cell-based; details: confluence at mid log growth, four-parameter logistic regression (FIG. 1); read-out: IC50, concentration that inhibits 50% of spore germination and/or mycelial growth
Method: (§1) Two-fold dilutions of purified VHH 10G11Q were prepared in 96-well microtiter plates. To 20 μl of these dilutions and to 20 μl of water as a control, 80 μl of fungal spore suspension (1 E+05 spores/ml in half strength potato dextrose broth (PDB)) were added, starting with a final VHH 10G11Q concentration of 10 μM. The test plates were incubated for 36 h at 25° C. using the IncuCyte Zoom live cell imaging system. All tests were performed in at least 2 replicates.
as §1, with “VHH 10G11Q and 41D01 were prepared” for “VHH 10G11Q were prepared”, “concentration of 40 μM. The” for “concentration of 10 μM. The”, “incubated for 48 h at” for “incubated for 36 h at”
Microplate graphs were generated using the time plot feature in the graph/export menu of the IncuCyte® Base Analysis Software. Raw data for confluence of treated samples at mid log growth were exported to GraphPad Prism 8 and plotted as a semi logarithmic function of the standard concentrations. IC50 values are extrapolated after fitting the data with a four-parameter logistic regression curve. Pathogen sensitivity is measured based on the IC50, which refers to the concentration (μM) that inhibits 50% of spore germination and/or mycelial growth.

Botrytis cinerea R16 [2] = assay: Prolonged incubation antifungal assay followed over 14 days; format: cell-based; details: followed over a period of 14 days (FIG. 9)
Method: as §1, with “The test plates were incubated for 36 h at 25° C. using the IncuCyte Zoom live cell imaging system.” left out

Fraction 3 = assay: ELISA with biotinylated liposomes on streptavidin-coated plates; format: binding, Botrytis cinerea
From the text: Dissociation constants (Kd) can be estimated based on the results of an ELISA. In equilibrium analysis as in ELISA, the Kd can be calculated from the equilibrium binding response. Where the ELISA plate wells are coated with a target antigen, and where the target antigen may be a lipid-containing fraction of the membrane of Botrytis cinerea, such a method may further use a range of concentrations of a polypeptide binding the target antigen. Where the ELISA generally provides a quantitative adsorption measure for each polypeptide concentration representing binding of the polypeptide to the target antigen, the range of concentration of a polypeptide may for example be 0.5, 1, 2.5, 5, and 10 μM. The most suitable range of concentrations used can vary depending on the affinity of the polypeptide to the target antigen. The corresponding absorption values as determined by ELISA may result in a sigmoid curve when absorption values are plotted against the logarithmic conversion of the polypeptide concentrations. This sigmoid curve may serve to define an IC50 value. Where this IC50 is the concentration of polypeptide where the corresponding absorption value is 50% of the saturated value as estimated by the maximum of the sigmoidal function, the Kd can be estimated by 1/Ka were the association constant (Ka) can be estimated as 1/IC50. Thus Kd corresponds to the analyte concentration that reaches equilibrium at 50% binding saturation. Commonly computation methods can be used for these calculations. For example, this can be done using GraphPad. In some embodiments, the Kd may be determined by surface plasmon resonance (SPR).
The above-mentioned method for the formation of liposomes (Example 12) was modified with the addition of a biotinylated lipid (12:0 Biotinyl M G (1-(12-N-biotin)aminododecanoyl-rac-glycerol), Sigma Aldrich), to allow for use of these liposomes for ELISA using streptavidin-coated plates (Pierce™ Streptavidin Coated High Capacity Plates, Clear, 96-Well, blocked with SuperBlock™ Buffer, Thermo Fisher Scientific).
To estimate the dissociation constant Kd value of 10G11 binding to Fraction 3, the ELISA set-up with biotinylated liposomes from Fraction 3 as described in Example 13 was used. 10G11 polypeptide was added in the following concentrations: 0.5, 1, 2.5, 5, and 10 μM, prepared by a serial dilution in phosphate buffer. […] This plot was used to estimate the Kd dissociation constant using GraphPad. Where non-linear regression fitting was used.

Botrytis cinerea spores = assay: Microscopic time-lapse imaging of spores (mode of action); format: cell-based; details: IncuCyte time-lapse imaging (FIG. 14)
From the text: The action of 10G11 disrupting liposomes (Example 12), further underscores lysing of spores can be attributed to the action of 10G11.

B1: 10G11: VHH polypeptide, SEQ ID NO: 2, begins with a D residue (protein)
VHH: DVQLVESGGGLVQAGGSLRLSCAASRSIFSINAMDWYRQAPGKQREWVAGITRGGTTKYADSVKGRFTISRDNAKKKVYLQMNSLKPEDTAVYYCNVLRGEQPWTRDYWGQGTQVTVSS
How did the IC50 (Botrytis cinerea R16 [1]) turn out when B1 was run?
The IC50 was 760 ± 100 nM.

What about the “effect on preventing spore outgrowth” value (Botrytis cinerea R16 [2]) of the same molecule?
The value was “allowed spore outgrowth to partly reinitiate after 3 days”.

What about the IC50 (Fraction 3; 0.5, 1, 2.5, 5 and 10 μM polypeptide, non-linear regression fitting in GraphPad (FIG. 29), read-out: IC50 of ELISA absorption plot) of the same molecule?
Its IC50 is 760 to 1550 nM.

What about the Kd (Fraction 3; converted from the ELISA IC50 range (FIG. 29), read-out: dissociation constant Kd, estimate) of the same molecule?
Its Kd is 760 to 1550 nM.

And the “spore lysis (loss of structural integrity)” value (Botrytis cinerea spores)?
The value was “substantial portion of spores are also lysed”.

And the spore outgrowth (Botrytis cinerea spores)?
Its spore outgrowth is “inhibited in commencing spore outgrowth”.
